# B1: ChAb3-CZ-Broad DAR (anti-CD98 chimeric chAb3 conjugated to Bcl-xL inhibitor synthon CZ, unfractionated, DAR 4.1) (antibody, human IgG1, V domains shown)
# VH: EVKLVESGGGLVQPGNSLRLSCATSGFTFIDYYMSWVRQSPGKALEWLGFIRNKANGYTTEYSASVKGRFTISRDNSQSILYLQMDTLRAEDSATYYCTRDRPAWFVYWGQGTLVTVSA
# VL: DIVMSQSPSSLAVSVGEKVTMSCKSSQSLLYSSNQKNYLAWYQQKPGQSPKLLIYWASTRESGVPDRFTGSGSGTDFTLTFSSVRAEDLAVYYCQQYYSYPYTFGGGTKLEIK
# modifications: Bcl-xL inhibitor synthon CZ conjugated to cysteines of the TCEP-reduced antibody (Method A); positions not given; Bcl-xL inhibitor synthon CZ conjugated to cysteines of the TCEP-reduced antibody (Method A); average DAR 4.1 by MS; positions not given
# Biological target: T1, human CD98 on human cancer cell lines (EBC-1, H2170, Molt-4) (human)
# T1 chain: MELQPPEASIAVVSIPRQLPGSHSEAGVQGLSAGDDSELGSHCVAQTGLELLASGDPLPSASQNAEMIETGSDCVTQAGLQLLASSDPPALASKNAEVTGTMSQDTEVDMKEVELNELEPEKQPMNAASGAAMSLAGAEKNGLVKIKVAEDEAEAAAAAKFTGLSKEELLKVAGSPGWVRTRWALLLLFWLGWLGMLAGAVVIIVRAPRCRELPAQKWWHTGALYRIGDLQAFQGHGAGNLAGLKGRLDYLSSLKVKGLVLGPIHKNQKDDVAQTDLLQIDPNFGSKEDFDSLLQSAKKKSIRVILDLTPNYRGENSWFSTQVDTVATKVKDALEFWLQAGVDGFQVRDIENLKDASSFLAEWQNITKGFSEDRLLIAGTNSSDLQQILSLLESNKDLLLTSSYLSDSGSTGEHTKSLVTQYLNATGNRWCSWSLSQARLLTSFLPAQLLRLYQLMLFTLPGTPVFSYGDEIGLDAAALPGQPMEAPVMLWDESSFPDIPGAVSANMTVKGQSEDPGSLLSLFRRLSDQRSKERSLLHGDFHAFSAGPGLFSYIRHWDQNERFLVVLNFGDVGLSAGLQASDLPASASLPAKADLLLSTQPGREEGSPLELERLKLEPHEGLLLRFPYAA
# Experiment: cell-based or functional assay
binder,measurement,value
B1,"ADC potency, IC50 (nM), EBC (NSCLC), growth inhibition (CellTiter-Glo)",7.15 nM
same,"ADC potency, IC50 (nM), H2170 (NSCLC), growth inhibition (CellTiter-Glo)",0.15 nM
same,"ADC potency, IC50 (nM), MOLT4 (leukemia), growth inhibition (CellTiter-Glo)",0.034 nM
